Experimental data reported in publication PMC5814804 (Nucleic Acids Research, 2018).

B1: Thermotoga maritima TsaB (natural protein, UniProt Q9WZX7 1-206, looked up)
chain: MNVLALDTSQRIRIGLRKGEDLFEISYTGEKKHAEILPVVVKKLLDELDLKVKDLDVVGVGIGPGGLTGLRVGIATVVGLVSPYDIPVAPLNSFEMTAKSCPADGVVLVARRARKGYHYCAVYLKDKGLNPLKEPSVVSDEELEEITKEFSPKIVLKDDLLISPAVLVEESERLFREKKTIHYYEIEPLYLQKSIAELNWEKKKRG
B2: Thermotoga maritima TsaD (natural protein, UniProt Q9WXZ2 1-327, looked up)
chain: MRVLGIETSCDETAVAVLDDGKNVVVNFTVSQIEVHQKFGGVVPEVAARHHLKNLPILLKKAFEKVPPETVDVVAATYGPGLIGALLVGLSAAKGLAISLEKPFVGVNHVEAHVQAVFLANPDLKPPLVVLMVSGGHTQLMKVDEDYSMEVLGETLDDSAGEAFDKVARLLGLGYPGGPVIDRVAKKGDPEKYSFPRPMLDDDSYNFSFAGLKTSVLYFLQREKGYKVEDVAASFQKAVVDILVEKTFRLARNLGIRKIAFVGGVAANSMLREEVRKRAERWNYEVFFPPLELCTDNALMVAKAGYEKAKRGMFSPLSLNADPNLNV

Key:
[1] = biological target: B2; assay: native gel or EMSA
[2] = biological target: the molecule itself; assay: SEC

Row | binding result [1] | Binder | stoichiometry N [2]
1 | binds | B1 | 2
2 |  | B2 | 2
